According to the Immune Epitope Database (IEDB):
pIC50, pKd: −log10 of the molar value.

How the values were obtained:
HLA-A*03:01 = assay: IEDB peptide-MHC binding, purified MHC/competitive/fluorescence; filed as Kd, often an IC50 or EC50 that approximates it; ≥ and ≤ were set here for values at or beyond the usual limits of such assays
HLA-A*02:16 = assay: as above; settings: source organism: Vibrio vulnificus
HLA-A*02:03 = assay: as above
HLA-A*23:01 = assay: as above
HLA-A*24:03 = assay: as above
HLA-B*51:01 [1] = assay: as above
HLA-B*39:01 = assay: as above
HLA-B*15:01 [2] = assay: as above
HLA-A*29:02 = assay: as above
HLA-A*68:02 = assay: as above; settings: source organism: Vibrio vulnificus
HLA-A*02:12 = assay: as above
HLA-A*69:01 [3] = assay: as above; settings: source organism: Vibrio vulnificus
HLA-A*02:19 = assay: as above
HLA-A*26:01 = assay: as above
HLA-A*02:11 = assay: as above; settings: source organism: Vibrio vulnificus
HLA-B*18:01 [4] = assay: as above
HLA-B*27:03 = assay: as above
HLA-B*46:01 [5] = assay: as above
HLA-B*15:17 [6] = assay: as above; settings: source organism: Vibrio vulnificus
HLA-A*02:01 [7] = assay: as above
HLA-B*57:01 [8] = assay: as above
HLA-A*24:02 = assay: as above
HLA-C*14:02 = assay: IEDB peptide-MHC binding, purified MHC/direct/fluorescence; filed as Kd, often an IC50 or EC50 that approximates it; ≥ and ≤ were set here for values at or beyond the usual limits of such assays
HLA-C*06:02 = assay: as above; settings: source organism: Cryptosporidium parvum Iowa II
HLA-C*15:02 = assay: as above; settings: source organism: Cryptosporidium parvum Iowa II
HLA-B*53:01 = assay: IEDB peptide-MHC binding, purified MHC/competitive/fluorescence; ≥ and ≤ were set here for values at or beyond the usual limits of such assays; settings: source organism: Human herpesvirus 4 type 2
HLA-B*58:01 = assay: IEDB peptide-MHC binding, purified MHC/direct/fluorescence; filed as Kd, often an IC50 or EC50 that approximates it; ≥ and ≤ were set here for values at or beyond the usual limits of such assays; settings: source organism: Mycobacterium tuberculosis
HLA-B*51:01 [9] = assay: as above; settings: source organism: Mycobacterium tuberculosis
HLA-B*15:01 [10] = assay: as above; settings: source organism: Mycobacterium tuberculosis
HLA-B*08:01 = assay: as above; settings: source organism: Mycobacterium tuberculosis str. Haarlem
HLA-A*69:01 [11] = assay: as above; settings: source organism: Mycobacterium tuberculosis
HLA-B*40:01 = assay: as above; settings: source organism: Mycobacterium tuberculosis
HLA-B*18:01 [12] = assay: as above; settings: source organism: Mycobacterium tuberculosis
HLA-B*48:01 = assay: as above; settings: source organism: Mycobacterium tuberculosis
HLA-B*27:05 = assay: as above; settings: source organism: Mycobacterium tuberculosis
HLA-B*46:01 [13] = assay: as above; settings: source organism: Mycobacterium tuberculosis
HLA-B*15:17 [14] = assay: as above; settings: source organism: Mycobacterium tuberculosis
HLA-A*02:01 [15] = assay: as above; settings: source organism: Mycobacterium tuberculosis
HLA-B*57:01 [16] = assay: as above; settings: source organism: Mycobacterium tuberculosis
HLA-A*01:01 = assay: as above; settings: source organism: Mycobacterium tuberculosis
HLA-A*31:01 = assay: IEDB peptide-MHC binding, purified MHC/competitive/fluorescence; filed as Kd, often an IC50 or EC50 that approximates it; ≥ and ≤ were set here for values at or beyond the usual limits of such assays; settings: source organism: Mycobacterium leprae
HLA-B*15:09 = assay: as above; settings: source organism: Mycobacterium leprae
HLA-A*11:01 = assay: as above; settings: source organism: Mycobacterium leprae
[17] = source organism: Vibrio vulnificus
[18] = source organism: Bacillus thuringiensis serovar tochigiensis BGSC 4Y1
[19] = source organism: Vibrio vulnificus YJ016
[20] = source organism: Cryptosporidium parvum Iowa II
[21] = source organism: Mycobacterium leprae

Q: Which results are given for DEWECTRDD?
A: pKd (HLA-A*03:01; [17]): ≤ 4.70; pKd (HLA-A*02:16): ≤ 4.70; pKd (HLA-A*02:03; [17]): ≤ 4.70; pKd (HLA-A*23:01; [17]): ≤ 4.70; pKd (HLA-A*24:03; [17]): ≤ 4.70; pKd (HLA-B*51:01 [1]; [17]): ≤ 4.70; pKd (HLA-B*39:01; [17]): ≤ 4.70; pKd (HLA-B*15:01 [2]; [17]): ≤ 4.70; pKd (HLA-A*29:02; [17]): ≤ 4.70; pKd (HLA-A*68:02): ≤ 4.70; pKd (HLA-A*02:12; [17]): ≤ 4.70; pKd (HLA-A*69:01 [3]): ≤ 4.70; pKd (HLA-A*02:19; [17]): ≤ 4.70; pKd (HLA-A*26:01; [17]): ≤ 4.70; pKd (HLA-A*02:11): ≤ 4.70; pKd (HLA-B*18:01 [4]; [17]): 7.23; pKd (HLA-B*27:03; [17]): ≤ 4.70; pKd (HLA-B*46:01 [5]; [17]): ≤ 4.70; pKd (HLA-B*15:17 [6]): ≤ 4.70; pKd (HLA-A*02:01 [7]; [17]): ≤ 4.70; pKd (HLA-B*57:01 [8]; [17]): ≤ 4.70

Q: How did the pKd (HLA-A*24:02; source organism: Salmonella enterica subsp. enterica serovar Typhi) turn out when IYAAISYMI was run?
A: ≥ 10.00

Q: What does the source list for KYAKFFQNF?
A: pKd (HLA-C*14:02; [18]): 6.37; pKd (HLA-A*24:02; [18]): ≥ 10.00

Q: LTDEQKNAV was tested. Which pKd (HLA-A*03:01; [19]) did it give?
A: ≤ 4.70

Q: And the pKd (HLA-A*02:03; [19])?
A: ≤ 4.70

Q: What about the pKd (HLA-A*23:01; [19]) of the same sequence?
A: ≤ 4.70

Q: And the pKd (HLA-A*24:03; [19])?
A: ≤ 4.70

Q: What about the pKd (HLA-B*51:01 [1]; [19]) of the same sequence?
A: ≤ 4.70

Q: And the pKd (HLA-B*39:01; [19])?
A: ≤ 4.70

Q: And the pKd (HLA-B*15:01 [2]; [19])?
A: ≤ 4.70

Q: What about the pKd (HLA-A*29:02; [19]) of the same sequence?
A: ≤ 4.70

Q: And the pKd (HLA-A*02:12; [19])?
A: 6.07

Q: What about the pKd (HLA-A*02:19; [19]) of the same sequence?
A: ≤ 4.70

Q: And the pKd (HLA-A*26:01; [19])?
A: ≤ 4.70

Q: What about the pKd (HLA-B*18:01 [4]; [19]) of the same sequence?
A: ≤ 4.70

Q: What about the pKd (HLA-B*27:03; [19]) of the same sequence?
A: ≤ 4.70

Q: And the pKd (HLA-B*46:01 [5]; [19])?
A: ≤ 4.70

Q: What about the pKd (HLA-A*02:01 [7]; [19]) of the same sequence?
A: ≤ 4.70

Q: And the pKd (HLA-B*57:01 [8]; [19])?
A: ≤ 4.70

Q: SFLHWFHHL was tested. Which pKd (HLA-C*06:02) did it give?
A: ≤ 4.70

Q: What about the pKd (HLA-C*15:02) of the same sequence?
A: ≤ 4.70

Q: And the pKd (HLA-C*14:02; [20])?
A: 6.95

Q: And the pKd (HLA-A*23:01; [20])?
A: ≥ 10.00

Q: With SFYKNLIW as the sequence, how does the pKd (HLA-A*24:02; source organism: Influenza A virus (A/swine/Korea/Hongsong2/2004(H1N2))) read?
A: 6.86

Q: With TAYCPLQHW as the sequence, how does the pIC50 (HLA-B*53:01) read?
A: 7.49

Q: YPACEAIGL was tested. Which pKd (HLA-B*58:01) did it give?
A: ≤ 4.70

Q: What about the pKd (HLA-B*51:01 [9]) of the same sequence?
A: ≤ 4.70

Q: And the pKd (HLA-B*15:01 [10])?
A: ≤ 4.70

Q: What about the pKd (HLA-B*08:01) of the same sequence?
A: ≤ 4.70

Q: What about the pKd (HLA-A*69:01 [11]) of the same sequence?
A: 7.04

Q: And the pKd (HLA-B*40:01)?
A: ≤ 4.70

Q: What about the pKd (HLA-B*18:01 [12]) of the same sequence?
A: 6.78

Q: What about the pKd (HLA-B*48:01) of the same sequence?
A: ≤ 4.70

Q: What about the pKd (HLA-B*27:05) of the same sequence?
A: ≤ 4.70

Q: What about the pKd (HLA-B*46:01 [13]) of the same sequence?
A: ≤ 4.70

Q: And the pKd (HLA-B*15:17 [14])?
A: ≤ 4.70

Q: What about the pKd (HLA-A*02:01 [15]) of the same sequence?
A: ≤ 4.70

Q: What about the pKd (HLA-B*57:01 [16]) of the same sequence?
A: ≤ 4.70

Q: What about the pKd (HLA-A*01:01) of the same sequence?
A: ≤ 4.70

Q: What about the pKd (HLA-A*03:01; [21]) of the same sequence?
A: ≤ 4.70

Q: And the pKd (HLA-A*31:01)?
A: ≤ 4.70

Q: What about the pKd (HLA-B*39:01; [21]) of the same sequence?
A: 7.51

Q: What about the pKd (HLA-B*15:09) of the same sequence?
A: 6.28

Q: What about the pKd (HLA-A*11:01) of the same sequence?
A: 6.07
